The record followed here is patent US20150307867.

The target of one series is GATA1 (Homo sapiens) (UniProt P15976). The following applies: ChIP-pyrosequencing, heterozygous primary human erythroblasts; input alleles balanced; about 60:40 G:T.
In the next series the target is TAL1 (Homo sapiens) (UniProt P17542). Particulars: ChIP-pyrosequencing, heterozygous primary human erythroblasts; input alleles balanced; about 60:40 G:T.
Sequence of TAL1 (Homo sapiens) (P17542 whole entry): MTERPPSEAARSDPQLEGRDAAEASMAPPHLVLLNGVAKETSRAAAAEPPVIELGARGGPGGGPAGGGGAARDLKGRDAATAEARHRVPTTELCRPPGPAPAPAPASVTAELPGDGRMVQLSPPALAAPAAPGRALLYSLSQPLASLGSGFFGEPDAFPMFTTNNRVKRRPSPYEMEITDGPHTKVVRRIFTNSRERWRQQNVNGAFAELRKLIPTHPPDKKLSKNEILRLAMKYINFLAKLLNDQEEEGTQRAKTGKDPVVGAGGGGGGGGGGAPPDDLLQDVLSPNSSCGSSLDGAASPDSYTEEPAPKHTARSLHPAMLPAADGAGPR

Sequence of GATA1 (Homo sapiens) (P15976 whole entry): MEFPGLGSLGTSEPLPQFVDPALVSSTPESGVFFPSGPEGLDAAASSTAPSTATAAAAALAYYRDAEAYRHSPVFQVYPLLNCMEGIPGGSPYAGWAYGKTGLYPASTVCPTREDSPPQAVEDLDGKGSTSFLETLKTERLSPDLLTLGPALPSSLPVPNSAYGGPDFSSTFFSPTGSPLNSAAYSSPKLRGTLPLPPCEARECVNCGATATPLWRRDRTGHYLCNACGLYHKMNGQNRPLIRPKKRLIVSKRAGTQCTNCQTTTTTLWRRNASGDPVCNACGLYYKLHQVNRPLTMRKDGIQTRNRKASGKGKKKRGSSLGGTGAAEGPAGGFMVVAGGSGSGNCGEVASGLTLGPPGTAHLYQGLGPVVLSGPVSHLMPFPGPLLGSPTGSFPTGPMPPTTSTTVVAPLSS

Turning to BCL11A DHS +62 rs1427407 T-allele, the binding signal (% of alleles in ChIP) with GATA1 (Homo sapiens) and with TAL1 (Homo sapiens) was 40 each time.
As to “CTGNNNNNNNNNGATA (double strand) [BCL11A DHS +62 rs1427407 G-allele (half-E-box/GATA motif)]”, the binding signal (% of alleles in ChIP) with GATA1 (Homo sapiens) and with TAL1 (Homo sapiens) was 60 in each case.
